# Results as given in patent US20050154189A1 (MAXYGEN, published 2005).
# Changes are numbered by the printed parent chain.
# B1: Round 1 CTLA4BP-5 (ligand)
# chain: VIHVTKEVKEVATLSCGHNVSVEELAQTRIHWQKEKKMVLTMMSGDMNIWPEYKNRTIFDITNNLSIVILALRPSDEGTYECVVLKYEKDAFKREHLAEVTLSVKADFPTPSISDFEIPPSNIRRIICSTSGGFPEPHLSWLENGEELNAINTTVSQDPGTELYTVSSKLDFNMTTNHSFMCLIKYGHLRVNQTFNWNTPKQEHFPDNLLPSWAITLISVNGIFVICCLTYCFAPRCRERRRNERLRRESVRPV
# notes: also called R1-5; R1 CTLA-4BP-5
# B2: Round 1 CTLA4BP-11 (ligand)
# chain: B1 chain with V4M, H31Y, T101M, S114T, S140F, G160E, T165A, P200T, Y231H, R252H
# notes: also called R1-11; R1 CTLA-4BP-11
# B3: Round 2 CTLA4BP 2x2-f1 (ligand)
# chain: B1 chain with P74L, P120T, S140F, V155A, G160E, H178R, M181V
# B4: Round 2 CTLA4BP 2x1-g8 (ligand)
# chain: B1 chain with I67V, S114T, H178R, M181V, R241K, R242S
# B5: Round 2 CTLA4BP 2x2-f12 (ligand)
# chain: B1 chain with E81G, K86E, T101M, G160E, T165A, V191A
# B6: Round 2 CTLA4BP 2x1-b12 (ligand)
# chain: VIHMTKEVKEVATLSCGHNVSVEELAQTRIYWQKEKKMVLTMMSGDMNIWPEYKNRTIFDITNNLSIVILALRPSDEGTYECVALKYEKDAFKQEHLAEVTLSVKADFPTPSISDFEIPPSNIRRIICSTSGGFPEPRLAWMEDGEELNAINTTVSQDPETELYTVSSKLDFNMTANHSFMCLIKYGHLRVNQTFNWNTPKQEHFPDNLLPSWAITLISVNGIFVICCLTYCFAPRCRERRRNERLRRESVCPV
# B7: Round 2 CTLA4BP 5x2-e12 (ligand)
# chain: B1 chain with D46G, P120T, N152S, T165A, H178R, M181V, P200T
# B8: Round 2 CTLA4BP 2x1-h12 (ligand)
# chain: B1 chain with H18L, T101M, S114T, V220A, R241K, R242S, R252C
# B9: Round 2 CTLA4BP 5x2-f3 (ligand)
# chain: VIHVTKEVKEVATLSCGHNVSVEELAQTRIYWQKEKKMVLTMMPGDMNIWPEYKNRTIFDITNNLSIVILALRPSDEGTYECVVLRYEKDAFKREHLAEVTLSVKADFPTPSISDFEIPTSNIRRIICSTSGGFPEPHLSWLENGEELNAINTTASQDPETELYTVSSKLDFNMTTNRSFVCLIKYGHLRVNQTFNWNTPKQEHFPDNLLPSWAITLISANGIFVICCLTHCFAPRCRERKSNERLRRESVRPV
# B10: Round 2 CTLA4BP 5x3-c4 (ligand)
# chain: B6 chain with M4V, A84V, Q94R, V155A, A176T, H178R, M181V, L210F, C252R
# B11: Round 2 CTLA4BP 2x1-c4 (ligand)
# chain: B1 chain with S15P, T101M, S114T, S140F, T165A, S179N
# B12: Round 2 CTLA4BP 5x1-f1 (ligand)
# chain: B1 chain with H18L, H31Y, Y53H, S114T, S140F, V155A, G160E, T176A, M181V, R245T
# B13: Round 2 CTLA4BP 5x2-h11 (ligand)
# chain: VIHVTKKVKEVATLSCGHNVSVEELAQTRIYWQKGKKMVLTMMSGDMNIWPECKNRTIFDITNNLSIVILALRPSDEGTYECAVLKYEKDAFKREHLAEVTLSVKADFPTPSISDFEIPTSNIRRIICSTSGGFPEPHLFWLENGEELNAINTTASQDPETELYAVSSKLDFNMTTNHSFMCLIKYGHLRVNQTFNWNTPKQEHFPDNLLPSWAITLISVNGIFVICCLTYCFAPRCRERKSNERLRRESVRPV
# B14: Round 2 CTLA4BP 5x2-b7 (ligand)
# chain: B1 chain with S114T, T176A, M181V, V220A
# B15: Round 2 CTLA4BP 5x3-c3 (ligand)
# chain: B1 chain with V4M, H18P, H31Y, P120T, Y231H, R252C
# B16: Round 2 CTLA4BP 5x1-d7 (ligand)
# chain: VIHVTKEVKEVATLSCGHNVPVEELAQTRIYWQKEKKMVLTMMSGDMNIWPEYKNRTIFDITNNLSIVILALRPSDEGTYGCVVLEYEKDAFKREHLAEVMLSVKADFPTPSITDLEIPPSNIRRIICSTSGGFPEPHLFWLENGEELNAINTTASQDPETELYAVSSKLDFNMTTNHSFMCLIKYGHLRVNQTFNWNTPKQEHFPDNLLPSWAITLISANGIFVICCLTYCFAPRCRERRRNERLRRESVHPV
# B17: Round 1 CTLA4BP-27 (ligand)
# chain: B1 chain with H18L, H31Y, T101M, G160E, T176A, M181V, R245T
# notes: also called R1-27; R1 CTLA-4BP-27
# B18: Round 2 CTLA4BP 2x1-f10 (ligand)
# chain: B1 chain with T101M, S114T, H138R, S140A, L142M, N144D, T165A, F224S, R252C
# B19: Round 2 CTLA4BP 2x4-h11 (ligand)
# chain: B1 chain with H31Y, K86E, T101M, T165A, T230A, E239G
# B20: Round 2 CTLA4BP 5x2-d7 (ligand)
# chain: B1 chain with V4M, H18L, T101M, G160E, E162G
# B21: Round 1 CTLA4BP-13 (ligand)
# chain: B9 chain with P44S, R86K, S140F, W141G, L148I, T176P, H231Y
# notes: also called R1-13; R1 CTLA-4BP-13
# B22: Round 2 CTLA4 A-B11-5 (ligand)
# chain: ITPKSATKRVKETVMLSCDYSTSTEELTSLRIYWQKDSKMVLAILPGKVQVWPEYKNRTITDMNDNPRIVILALRLSDSGTYTCVIQKPDLKGAYKLEHLTSVRLMIRADFPVPTINDLGNPSPNIRRLICSTSGGFPRPHLYWLENGEELNATNTTLSQDPETKLYMISSELDFNMTSNHSFLCLVKYGDLTVSQTFYWQESKPTPSANQHLTWTIIIPVSAFGISVIIAVILTCLTCRNAAIRRQRRENEVEMQSCSQSP
# B23: Round 2 CTLA4 A-G8-1 (ligand)
# chain: B22 chain with A6V, S21N, R75P
# B24: Round 2 CTLA4 A-F6-9 (ligand)
# chain: B22 chain with A6V
# Target: T1, Soluble CTLA-4-Ig (human, UniProt P16410 36-161, FITC-conjugated in the two-colour FACS assays; unlabelled and detected with FITC goat anti-human IgG in the concentration-dependent assay)
# T1 construct: extracellular domain; Bought from R&D Systems; also called sCTLA-4-Ig; CTLA-4-Ig Fc; not shown: Fc portion of human IgG1
# T1 sequence (P16410 36-161): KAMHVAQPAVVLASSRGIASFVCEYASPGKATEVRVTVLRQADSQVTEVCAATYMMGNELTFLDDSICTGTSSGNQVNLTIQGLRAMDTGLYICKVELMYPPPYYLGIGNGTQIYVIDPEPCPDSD
# Assay: two-colour FACS profile on transfected cells; score of preference for CTLA-4-Ig over CD28-Ig vs WT hB7-1
row,Binder,Binding Score
1,B1,2
2,B2,1
3,B3,1
4,B4,1
5,B5,1
6,B6,1
7,B7,0
8,B8,1
9,B9,0
10,B10,1
11,B11,1
12,B12,1
13,B13,1
14,B14,1
15,B15,1
16,B16,1
17,B17,1
18,B18,1
19,B19,0
20,B20,1
21,B21,1
22,B22,1
23,B23,1
24,B24,1
